Experimental findings from publication PMC6704107 (2019) are described below.

Positions count from the first letter of the chain named.

Assay [1] concerns the target T1, AAVR PKD1-5 S425A (UniProt Q8IZA0-1 1-1049, S425A).
T1 sequence: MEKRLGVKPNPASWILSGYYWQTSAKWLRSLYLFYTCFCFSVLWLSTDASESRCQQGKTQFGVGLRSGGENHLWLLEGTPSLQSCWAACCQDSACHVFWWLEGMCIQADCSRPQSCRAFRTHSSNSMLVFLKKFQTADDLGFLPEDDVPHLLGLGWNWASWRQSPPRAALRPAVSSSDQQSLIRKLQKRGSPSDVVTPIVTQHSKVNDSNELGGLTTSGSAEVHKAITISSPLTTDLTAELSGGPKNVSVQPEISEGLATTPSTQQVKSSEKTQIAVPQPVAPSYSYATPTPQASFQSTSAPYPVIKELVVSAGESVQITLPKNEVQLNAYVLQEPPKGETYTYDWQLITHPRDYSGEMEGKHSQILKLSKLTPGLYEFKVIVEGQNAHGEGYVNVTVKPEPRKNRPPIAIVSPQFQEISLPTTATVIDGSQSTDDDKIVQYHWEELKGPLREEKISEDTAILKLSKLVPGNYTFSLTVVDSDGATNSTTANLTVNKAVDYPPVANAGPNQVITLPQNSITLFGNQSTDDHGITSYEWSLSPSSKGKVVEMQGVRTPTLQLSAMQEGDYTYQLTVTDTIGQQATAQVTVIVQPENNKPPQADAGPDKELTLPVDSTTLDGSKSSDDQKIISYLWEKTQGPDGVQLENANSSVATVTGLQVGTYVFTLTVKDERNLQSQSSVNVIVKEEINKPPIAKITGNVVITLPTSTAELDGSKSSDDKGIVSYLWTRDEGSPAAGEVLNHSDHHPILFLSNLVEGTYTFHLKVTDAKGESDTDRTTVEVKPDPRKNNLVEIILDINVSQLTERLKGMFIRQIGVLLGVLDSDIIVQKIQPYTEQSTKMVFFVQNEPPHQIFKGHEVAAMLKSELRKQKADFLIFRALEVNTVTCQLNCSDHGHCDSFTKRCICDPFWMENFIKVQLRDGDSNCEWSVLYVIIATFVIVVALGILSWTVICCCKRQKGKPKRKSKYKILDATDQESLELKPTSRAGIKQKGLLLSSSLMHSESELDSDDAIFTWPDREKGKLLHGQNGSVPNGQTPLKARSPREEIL
As to the kind of experiment: SPR. Background: Surface plasmon resonance follows binding to a sensor surface in real time, without labels.

For assay [2], the target named is T2, AAVR PKD1-5 D435A (UniProt Q8IZA0-1 1-1049, D435A).
T2 sequence: T1 sequence with A425S, D435A
As to the kind of experiment: SPR.

B1: Adeno-associated virus 1 (AAV1) particle, wild-type capsid (complex)
chain: MAADGYLPDWLEDNLSEGIREWWDLKPGAPKPKANQQKQDDGRGLVLPGYKYLGPFNGLDKGEPVNAADAAALEHDKAYDQQLKAGDNPYLRYNHADAEFQERLQEDTSFGGNLGRAVFQAKKRVLEPLGLVEEGAKTAPGKKRPVEQSPQEPDSSSGIGKTGQQPAKKRLNFGQTGDSESVPDPQPLGEPPATPAAVGPTTMASGGGAPMADNNEGADGVGNASGNWHCDSTWLGDRVITTSTRTWALPTYNNHLYKQISSASTGASNDNHYFGYSTPWGYFDFNRFHCHFSPRDWQRLINNNWGFRPKRLNFKLFNIQVKEVTTNDGVTTIANNLTSTVQVFSDSEYQLPYVLGSAHQGCLPPFPADVFMIPQYGYLTLNNGSQAVGRSSFYCLEYFPSQMLRTGNNFTFSYTFEEVPFHSSYAHSQSLDRLMNPLIDQYLYYLNRTQNQSGSAQNKDLLFSRGSPAGMSVQPKNWLPGPCYRQQRVSKTKTDNNNSNFTWTGASKYNLNGRESIINPGTAMASHKDDEDKFFPMSGVMIFGKESAGASNTALDNVMITDEEEIKATNPVATERFGTVAVNFQSSSTDPATGDVHAMGALPGMVWQDRDVYLQGPIWAKIPHTDGHFHPSPLMGGFGLKNPPPQILIKNTPVPANPPAEFSATKFASFITQYSTGQVSVEIEWELQKENSKRWNPEVQYTSNYAKSANVDFTVDNNGLYTEPRPIGTRYLTRPL
One may read the Kd as the equilibrium constant for the complex coming apart. The low end stands for tighter binding, the high end for weaker binding. B1: the Kd in assay [1] amounted to 3.88 µM; in assay [2] it was 13.6 µM.
